Experimental data reported in patent US20240317847A1 (Bayer, published 2024).
Where “and” joins values, the source holds several entries; their conditions need not be identical. Identical values can stand only once.

B1: TPP-31312 (antibody, IgG4, V domains shown)
VH: EVQLLESGGGLVQPGGSLRLSCAASGFTFSHYDMNWLRQAPGKGLEWVGVISYDGSNKFYADFVKGRFTISRDNSKNTLYLQMNSLRAEDTAVYYCARTPGSHFDYWGQGTLVTVSS
VL: QSVLTQPPSASGTPGQRVTISCSGSSSNIGNNAVNWYQQLPGTAPKLLIYYDDLLPSGVPDRFSGSKSGTSASLAISGLRSEDEADYYCSAWDDSLNGVVFGGGTKLTVL
notes: also called WT antibody; chimeric antibody
B2: TPP-31325 (antibody, human IgG4 S228P, lambda, V domains shown)
VH: QVQLVESGGGVVQPGRSLRLSCAASGFTFSHYDMHWVRQAPGKGLEWVAVISYEGSNKFYADSVKGRFTISRDNSKNTLYLQMNSLRAEDTAVYYCARTPGSHFDYWGQGTLVTVSS
VL: QSVLTQPPSASGTPGQRVTISCSGSSSNIGSNYVNWYQQLPGTAPKLLIYYDDLRPSGVPDRFSGSKSGTSASLAISGLRSEDEADYYCSAWDDSLSGVVFGGGTKLTVLG
notes: hIgG4-SPLE, Lambda; also called final germline; FB with a back-mutation VL-A90S
B3: TPP-31313 (antibody, IgG4, V domains shown)
VH: QVQLVESGGGVVQPGRSLRLSCAASGFTFSHYDMHWVRQAPGKGLEWVAVISYEGSNKFYADSVKGRFTISRDNSKNTLYLQMNSLRAEDTAVYYCARTPGSHFDYWGQGTLVTVSS
VL: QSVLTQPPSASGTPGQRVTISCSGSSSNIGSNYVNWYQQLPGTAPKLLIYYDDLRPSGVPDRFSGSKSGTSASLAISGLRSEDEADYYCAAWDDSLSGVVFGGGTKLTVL
notes: hIgG4 SPLE, lambda; also called FB; fundamental backbone
B4: TPP-31320 (antibody, IgG4, V domains shown)
VH: QVQLVESGGGVVQPGRSLRLSCAASGFTFSHYDMHWVRQAPGKGLEWVGVISYEGSNKFYADSVKGRFTISRDNSKNTLYLQMNSLRAEDTAVYYCARTPGSHFDYWGQGTLVTVSS
VL: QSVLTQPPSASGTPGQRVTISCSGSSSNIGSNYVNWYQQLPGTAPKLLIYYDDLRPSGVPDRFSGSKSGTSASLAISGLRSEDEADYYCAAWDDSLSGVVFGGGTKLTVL
notes: hIgG4 SPLE, lambda; FB - 1, back mutation VH-A49G
B5: TPP-31318 (antibody, IgG4, V domains shown)
VH: QVQLVESGGGVVQPGRSLRLSCAASGFTFSHYDMNWVRQAPGKGLEWVAVISYEGSNKFYADSVKGRFTISRDNSKNTLYLQMNSLRAEDTAVYYCARTPGSHFDYWGQGTLVTVSS
VL: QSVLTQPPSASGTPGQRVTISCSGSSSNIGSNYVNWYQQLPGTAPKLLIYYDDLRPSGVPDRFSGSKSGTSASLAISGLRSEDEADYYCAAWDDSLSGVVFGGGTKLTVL
notes: hIgG4 SPLE, lambda; FB - 1, back mutation VH-H35N
B6: TPP-31314 (antibody, IgG4, V domains shown)
VH: EVQLVESGGGVVQPGRSLRLSCAASGFTFSHYDMHWVRQAPGKGLEWVAVISYEGSNKFYADSVKGRFTISRDNSKNTLYLQMNSLRAEDTAVYYCARTPGSHFDYWGQGTLVTVSS
VL: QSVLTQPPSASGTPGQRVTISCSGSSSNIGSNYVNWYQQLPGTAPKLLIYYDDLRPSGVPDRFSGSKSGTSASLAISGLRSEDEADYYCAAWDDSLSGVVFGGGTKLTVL
notes: hIgG4 SPLE, lambda; FB - 1, back mutation VH-Q1E
B7: TPP-31321 (antibody, IgG4, V domains shown)
VH: QVQLVESGGGVVQPGRSLRLSCAASGFTFSHYDMHWVRQAPGKGLEWVAVISYEGSNKFYADFVKGRFTISRDNSKNTLYLQMNSLRAEDTAVYYCARTPGSHFDYWGQGTLVTVSS
VL: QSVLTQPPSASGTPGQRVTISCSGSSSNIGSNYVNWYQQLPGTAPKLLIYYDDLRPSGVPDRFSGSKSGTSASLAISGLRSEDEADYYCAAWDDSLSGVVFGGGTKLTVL
notes: hIgG4 SPLE, lambda; FB - 1, back mutation VH-S63F
B8: TPP-31326 (antibody, IgG4, V domains shown)
VH: QVQLVESGGGVVQPGRSLRLSCAASGFTFSHYDMHWVRQAPGKGLEWVAVISYEGSNKYYADSVKGRFTISRDNSKNTLYLQMNSLRAEDTAVYYCARTPGSHFDYWGQGTLVTVSS
VL: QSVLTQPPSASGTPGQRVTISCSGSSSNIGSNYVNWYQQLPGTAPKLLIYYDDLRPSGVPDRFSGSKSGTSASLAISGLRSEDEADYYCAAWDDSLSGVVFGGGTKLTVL
notes: hIgG4 SPLE, lambda; FB + 1, plus VH-F59Y

What was measured:
human IL-11 [1] = target: T1, human IL-11 (human, UniProt P20809 22-199); experiment: cell-based or functional assay
T1 sequence: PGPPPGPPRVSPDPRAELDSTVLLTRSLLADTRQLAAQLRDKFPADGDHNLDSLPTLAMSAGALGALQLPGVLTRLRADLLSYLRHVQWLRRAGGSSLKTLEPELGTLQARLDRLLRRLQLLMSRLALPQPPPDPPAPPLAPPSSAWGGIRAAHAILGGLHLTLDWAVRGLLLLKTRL

murine IL-11 [2] = target: T2, murine IL-11 (mouse, UniProt P47873 22-199); experiment: cell-based or functional assay
T2 sequence: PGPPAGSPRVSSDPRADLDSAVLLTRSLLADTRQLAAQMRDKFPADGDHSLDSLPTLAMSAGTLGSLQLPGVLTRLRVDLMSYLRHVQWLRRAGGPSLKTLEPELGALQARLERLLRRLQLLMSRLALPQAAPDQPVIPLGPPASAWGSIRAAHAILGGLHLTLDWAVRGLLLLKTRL

human IL-11 [3] = target: T1, human IL-11; experiment: cell-based or functional assay; remark: listed apart in the source
murine IL-11 [4] = target: T2, murine IL-11; experiment: cell-based or functional assay; remark: listed apart in the source
human IL-11 [5] = target: T1, human IL-11; experiment: SPR, IgG captured via anti-human Fc, IL-11 as analyte
Method: (§1) Antibody binding affinity to hIL-11 (Invigate, Germany, e.g., lot #C121021-19) and mIL-11 (Invigate, Germany, e.g., lot #C210819-09) was detected using Biacore 8K. Each antibody was captured on an anti-human IgG Fc antibody immobilized CM5 sensor chip (GE). hIL-11 and mIL-11 at different concentrations (0, 5, 15.82 and 50 nM) in 1×HBS-EP+ (pH 7.4) (GE healthcare) were injected over the sensor chip at a flow rate of 30 μL/min for an association phase of 120 s, followed by 200 s dissociation phase. The chip was then regenerated by 10 mM Glycine, pH 1.5 after each binding cycle.
(§2) The sensorgrams of blank surface and buffer channel were subtracted from the test sensorgrams. The experimental data was fitted by 1:1 model using Langmiur analysis. Molecular weight of 19.3 kDa was used to calculate the molar concentration of human and mouse IL-11.
(§3) 16 AB were produced as described in Example 21 and binding of purified AB to human and mouse IL-11 was analyzed using SPR as described in Example 21.

murine IL-11 [6] = target: T2, murine IL-11; experiment: as above
Method: as §1, §2, §3

IC50, RGA 1 (human IL-11 [1])	IC50, RGA 2 (human IL-11 [1])	IC50, RGA 1 (murine IL-11 [2])	IC50, RGA 2 (murine IL-11 [2])	IC50, RGA (human IL-11 [3])	IC50, RGA (murine IL-11 [4])	Kd (human IL-11 [5])	Kd (murine IL-11 [6])	Binder
163 nM and 171 nM	80 nM	31 nM and 75 nM	20 nM	8.9 nM	9.8 nM	5.3 nM	9.3 nM	B1
–	–	–	–	1.2 nM	0.6 nM	0.59 nM	0.35 nM	B2
–	–	–	–	5.4 nM	1.6 nM	0.89 nM	0.64 nM	B3
–	–	–	–	2.8 nM	1.1 nM	0.95 nM	0.56 nM	B4
–	–	–	–	3.8 nM	1.2 nM	0.89 nM	0.3 nM	B5
–	–	–	–	2.4 nM	1.2 nM	0.87 nM	0.59 nM	B6
–	–	–	–	2.8 nM	1 nM	0.85 nM	0.67 nM	B7
–	–	–	–	3.6 nM	3.3 nM	1.7 nM	1.2 nM	B8
